Test [1] addresses T1, IL-12/23 p40 (Sino biological, 10052-H08H) (UniProt P29460 23-328).
T1 construct: Bought protein
T1 sequence (looked up): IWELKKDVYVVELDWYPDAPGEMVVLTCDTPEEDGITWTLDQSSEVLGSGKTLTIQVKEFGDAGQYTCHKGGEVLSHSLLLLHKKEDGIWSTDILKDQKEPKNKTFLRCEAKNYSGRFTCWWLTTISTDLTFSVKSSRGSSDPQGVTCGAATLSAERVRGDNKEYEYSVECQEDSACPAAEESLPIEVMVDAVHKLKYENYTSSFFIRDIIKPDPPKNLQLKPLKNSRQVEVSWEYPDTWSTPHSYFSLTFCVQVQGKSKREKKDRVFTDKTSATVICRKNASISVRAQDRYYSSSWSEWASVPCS
Briefly: ELISA, IL-12/23 p40 coated.

The target in test [2] is T2, mouse APRIL (7907-AP/CF, R&D Systems) (mouse, UniProt Q9D777 96-241, limits assumed).
T2 construct: Bought protein
T2 sequence (looked up): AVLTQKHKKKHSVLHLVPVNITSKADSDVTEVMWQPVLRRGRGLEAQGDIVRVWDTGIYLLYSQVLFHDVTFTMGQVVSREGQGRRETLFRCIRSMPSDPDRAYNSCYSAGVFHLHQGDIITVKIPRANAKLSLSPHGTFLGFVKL
The experiment in a line: SPR (Biacore), sample captured on Protein A, antigen flowed, 1:1 fit.

Test [3] concerns the target T3, mouse BAFF (BAF-M521y, Acro Biosystems) (mouse, UniProt Q9WU72 127-309).
T3 construct: Bought protein
The description is as above.

Test [4] concerns the target T4, cynomolgus monkey APRIL (APR-CM410B, Kactus) (cynomolgus monkey).
T4 chain: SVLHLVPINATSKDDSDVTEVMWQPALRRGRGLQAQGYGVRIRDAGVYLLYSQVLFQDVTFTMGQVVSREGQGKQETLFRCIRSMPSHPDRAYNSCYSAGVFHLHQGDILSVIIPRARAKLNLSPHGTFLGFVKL
The test is described as above.

Test [5] addresses T5, human BAFF (10056-HNCH, Sino biological) (human, UniProt Q9Y275 134-285).
T5 construct: Bought protein
The description is as above.

The target of test [6] is T6, human APRIL (5860-AP-010/CF, R&D Systems) (human, UniProt O75888 115-250, limits assumed).
T6 construct: Bought protein
T6 sequence (looked up): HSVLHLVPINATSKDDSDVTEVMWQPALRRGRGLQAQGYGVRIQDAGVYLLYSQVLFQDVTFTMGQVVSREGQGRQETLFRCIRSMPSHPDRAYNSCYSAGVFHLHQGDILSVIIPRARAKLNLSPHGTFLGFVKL
The description is as above.

The target in test [7] is T6, human APRIL (5860-AP-010/CF, R&D …). Briefly: competition ELISA: biotin-labeled APRIL to coated BCMA. On the procedure: A receptor protein was diluted to 2 μg/mL with PBS at pH 7.4 (BasalMedia, B320) and added to a 96-well microplate (Corning, 3590) at 100 μL/well. The plate was incubated at 4° C. overnight. After the liquid was discarded, 200 μL of 1% Casein blocking solution (Thermo, 37528) was added to each well for blocking, and the plate was incubated at 37° C. for 2 h. After the blocking was completed, the blocking solution was discarded, and the plate was washed 3 times with a PBST buffer (PBS at pH 7.4 containing 0.1% tween-20) for later use. A biotin-labeled ligand protein at a fixed concentration was mixed with the antibody or fusion protein diluted in gradient, pre-incubated at 37° C. for 30 min, and added to a blocked microplate. The plate was incubated at 37° C. for 1.5 h. After the incubation was completed, the plate was washed 3 times with PBST. 100 μL of streptavidin-HRP (Invitrogen, 434323, diluted at a ratio of 1:4000) was added to each well, and the plate was incubated at 37° C. for 1 h. The supernatant was removed, and the plate was washed 3 times with PBST. […] The plate was read for absorbance values at 450 nm on a microplate reader, the curves for the inhibition of the binding of the ligands to the receptors were fitted with software, and the IC₅₀ values were calculated. […]

B1: RCT-18 (Telitacicept) (Fc fusion)
chain: SRVDQEERFPQGLWTGVAMRSCPEEQYWDPLLGTCMSCKTICNHQSQRTCAAFCRSLSCRKEQGKFYDHLLRDCISCASICGQHPKQCAYFCENKLRSPVNLPPELDKTHTCPPCPAPEAEGAPSVFLFPPKPKDTLMISRTPEVTCVVVDVSHEDPEVKFNWYVDGVEVHNAKTKPREEQYNSTYRVVSVLTVLHQDWLNGKEYKCKVSNKALPSSIEKTISKAKGQPREPQVYTLPPSRDELTKNQVSLTCLVKGFYPSDIAVEWESNGQPENNYKTTPPVLDSDGSFFLYSKLTVDKSRWQQGNVFSCSVMHEALHNHYTQKSLSLSPGK
notes: Positive control; TACI part is positions 13-118 of the extracellular region of human TACI, the rest is Fc
For the molecule B1, in test [1], the binding result is listed as “no binding”. Besides, the dissociation constant Kd in test [2] came to 0.00671 nM; in test [3] it was 0.121 nM; in test [4] it was 0.0436 nM; in test [5], 0.186 nM; in test [6] it was 0.0281 nM. In addition, the koff in test [2] worked out at 1.69e-05 s⁻¹; in test [3] it was 8.98e-05 s⁻¹; in test [4] it was 0.000507 s⁻¹; in test [5], 0.00018 s⁻¹; in test [6] it was 0.000658 s⁻¹. For the same molecule, the kon in test [2] was found to be 2.52e+06 M⁻¹ s⁻¹; in test [3], 740000 M⁻¹ s⁻¹; in test [4], 1.16e+07 M⁻¹ s⁻¹; in test [5], 964000 M⁻¹ s⁻¹; in test [6] it was 2.34e+07 M⁻¹ s⁻¹. Moreover, the IC50 in test [7] is 25.1 nM.

Source of the values: patent US20240301031A1 (JIANGSU HENGRUI PHARMACEUTICALS, published 2024).
